Measured values published in the supplement of paper PMC5998384.

What was measured:
[1] = test system: HeLa Kyoto; test: melting temperature (median over replicates), in situ; higher = more thermally stable
[2] = test system: HeLa Kyoto; test: thermal stability score vs G1/S (z-score of summed log2 fold changes over temperatures); higher = more thermally stable than in G1/S
[3] = test system: HeLa Kyoto; test: solubility in G1/S (NP-40 vs SDS abundance) (log2 ratio); higher = more soluble; conditions: cell cycle stage: G1/S
[4] = test system: HeLa Kyoto; test: solubility change mitosis vs G1/S (difference of NP-40 vs SDS log2 ratios) (log2 ratio difference); higher = more soluble in mitosis
[5] = cell cycle stage: early G1 (4.5 h after nocodazole release)
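Throughout, for melting temperature (median over replicates), in situ: HeLa Kyoto cells synchronized by double thymidine or nocodazole block, proteins quantified by TMT10plex mass spectrometry, three independent biological replicates.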
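Throughout, for solubility change mitosis vs G1/S (difference of NP-40 vs SDS log2 ratios): synchronized HeLa Kyoto cells (double thymidine block for G1/S, nocodazole release for mitosis), protein amounts in NP-40 versus SDS lysates quantified by mass spectrometry, three biological replicates.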
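Throughout, for solubility in G1/S (NP-40 vs SDS abundance): HeLa Kyoto cells arrested at G1/S by double thymidine block, proteins quantified by TMT10plex mass spectrometry in mild NP-40 versus SDS extracts, three biological replicates.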
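Throughout, for thermal stability score vs G1/S (z-score of summed log2 fold changes over temperatures): synchronized HeLa Kyoto cells, proteins quantified by TMT10plex mass spectrometry, three biological replicates, mitosis taken 0.5 h after nocodazole release, G1/S directly after double thymidine block.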

| Sequence | melting temperature ([1]; cell cycle stage: G1/S) | melting temperature ([1]; cell cycle stage: mitosis) | thermal stability score [2, 5] | thermal stability score ([2]; cell cycle stage: mitosis) | solubility in G1/S (log2) [3] | solubility change mitosis (log2) [4] |
| --- | --- | --- | --- | --- | --- | --- |
| MAALRVLLSCVRGPLRPPVRCPAWRPFASGANFEYIIAEKRGKNNTVGLIQLNRPKALNALCDGLIDELNQALKTFEEDPAVGAIVLTGGDKAFAAGADIKEMQNLSFQDCYSSKFLKHWDHLTQVKKPVIAAVNGYAFGGGCELAMMCDIIYAGEKAQFAQPEILIGTIPGAGGTQRLTRAVGKSLAMEMVLTGDRISAQDAKQAGLVSKICPVETLVEEAIQCAEKIASNSKIVVAMAKESVNAAFEMTLTEGSKLEKKLFYSTFATDDRKEGMTAFVEKRKANFKDQ [ECHS1] | 52.8 °C | 53.3 °C | -1.11 | -1.89 | 0.518 | 0.0593 |
| MAAMASLGALALLLLSSLSRCSAEACLEPQITPSYYTTSDAVISTETVFIVEISLTCKNRVQNMALYADVGGKQFPVTRGQDVGRYQVSWSLDHKSAHAGTYEVRFFDEESYSLLRKAQRNNEDISIIPPLFTVSVDHRGTWNGPWVSTEVLAAAIGLVIYYLAFSAKSHIQA [SSR4] | 55.5 °C | 54.9 °C | 1.62 | -0.139 | 0.0435 | 0.0331 |
| MAAMAVALRGLGGRFRWRTQAVAGGVRGAARGAAAGQRDYDLLVVGGGSGGLACAKEAAQLGRKVAVVDYVEPSPQGTRWGLGGTCVNVGCIPKKLMHQAALLGGLIQDAPNYGWEVAQPVPHDWRKMAEAVQNHVKSLNWGHRVQLQDRKVKYFNIKASFVDEHTVCGVAKGGKEILLSADHIIIATGGRPRYPTHIEGALEYGITSDDIFWLKESPGKTLVVGASYVALECAGFLTGIGLDTTIMMRSIPLRGFDQQMSSMVIEHMASHGTRFLRGCAPSRVRRLPDGQLQVTWEDSTTGKEDTGTFDTVLWAIGRVPDTRSLNLEKAGVDTSPDTQKILVDSREATSVPHIYAIGDVVEGRPELTPIAIMAGRLLVQRLFGGSSDLMDYDNVPTTVFTPLEYGCVGLSEEEAVARHGQEHVEVYHAHYKPLEFTVAGRDASQCYVKMVCLREPPQLVLGLHFLGPNAGEVTQGFALGIKCGASYAQVMRTVGIHPTCSEEVVKLRISKRSGLDPTVTGCUG [TXNRD2] | 53.6 °C | 53 °C | 2.59 | -1.79 | 0.0295 | -0.16 |
| MAANKPKGQNSLALHKVIMVGSGGVGKSALTLQFMYDEFVEDYEPTKADSYRKKVVLDGEEVQIDILDTAGQEDYAAIRDNYFRSGEGFLCVFSITEMESFAATADFREQILRVKEDENVPFLLVGNKSDLEDKRQVSVEEAKNRAEQWNVNYVETSAKTRANVDKVFFDLMREIRARKMEDSKEKNGKKKRKSLAKRIRERCCIL [RALA] | 58.9 °C | 57.4 °C | -3.71 | -3.15 | 0.0126 | -0.0413 |
| MAAPAVSGLSRQVRCFSTSVVRPFAKLVRPPVQVYGIEGRYATALYSAASKQNKLEQVEKELLRVAQILKEPKVAASVLNPYVKRSIKVKSLNDITAKERFSPLTTNLINLLAENGRLSNTQGVVSAFSTMMSVHRGEVPCTVTSASPLEEATLSELKTVLKSFLSQGQVLKLEAKTDPSILGGMIVRIGEKYVDMSVKTKIQKLGRAMREIV [ATP5O] | 53.4 °C | 53.2 °C | -2.17 | -2.27 | 0.365 | 0.116 |
| MAAPGGRGRSLSGLLPAQTSLEYALLDAVTQQEKDSLVYQYLQKVDGWEQDLSVPEFPEGLEWLNTEEPISVYKDLCGKIVVLDFFTYCCINCIHLLPDLHALEHTYSDKDGLLIIGVHSAKFPNEKVLDNIKSAVLRYNITHPMVNDADASLWQELEVSCWPTLVILGPRGNMLFSLIGEGHKDKLFLYTSIALKYYKDRGQIRDNKIGIKLYKDSLPPSPLLFPGKVTVDQVTDRLVIADTGHHRILVVWKNGQIQYSIGGPNPGRKDGIFSESTFNSPQGVAIMNNIIYVADTENHLIRKIDLEAEKVSTVAGIGIQGTDKEGGAKGEQQPISSPWDVVFGTSGSEVQRGDILWIAMAGTHQIWALLLDSGKLPKKNELTKGTCLRFAGSGNEENRNNAYPHKAGFAQPSGLSLASEDPWSCLFVADSESSTVRTVSLKDGAVKHLVGGERDPMNLFAFGDVDGVGINAKLQHPLGVTWDKKRNLLYVADSYNHKIKVVDPKTKNCTTLAGTGDTNNVTSSSFTESTFNEPGGLCIGENGELLYVADTNNHQIKVMDLETKMVSVLPIFRSENAVVDGPFLVEKQKTLPKLPKSAPSIRLSPVTACAGQTLQFKLRLDLPSGSKLTEGVSSCWFLTAEGNEWLLQGQIAAGDIENISSQPTISLQIPDDCLSLEAIVSVSVFLYYCSADSSACMMKAILFSQPLQITDTQQGCIAPVELRYVF [NHLRC2] | 52 °C | 52.1 °C | 0.332 | -0.145 | 0.0639 | -0.199 |
| MAAPLELSCWGGGWGLPSVHSESLVVMAYAKFSGAPLKVNVIDNTWRGSRGDVPILTTEDDMVSQPAKILNFLRKQKYNADYELSAKQGADTLAYIALLEEKLLPAVLHTFWVESDNYFTVTKPWFASQIPFPLSLILPGRMSKGALNRILLTRGQPPLYHLREVEAQIYRDAKECLNLLSNRLGTSQFFFGDTPSTLDAYVFGFLAPLYKVRFPKVQLQEHLKQLSNLCRFCDDILSSYFRLSLGGISPAGQETVDANLQKLTQLVNKESNLIEKMDDNLRQSPQLPPRKLPTLKLTPAEEENNSFQRLSP [MTX3] | 51.4 °C | 53 °C | -1.88 | -1.18 | 0.0969 | 0.0458 |
